Reference: publication PMC10817169, “The universal suppressor mutation restores membrane budding defects in the HSV-1 nuclear egress complex by stabilizing the oligomeric lattice” (PLOS Pathogens, 2024)

B12: UL31 51-306 R229L (SUP_(UL31)Δ50-306) (domain or fragment)
chain: QELCLHERQRYRGLFAALAQTPSEEIAIVRSLSVPLVKTTPVSLPFCLDQTVADNCLTLSGMGYYLGIGGCCPACNAGDGRFAATSREALILAFVQQINTIFEHRAFLASLVVLADRHNAPLQDLLAGILGQPELFFVHTILRGGGACDPRLLFYPDPTYGGHMLYVIFPGTSAHLHYLLIDRMLTACPGYRFVAHVWQSTFVLVVRRNAEKPTDAEIPTVSAADIYCKMRDISFDGGLMLEYQRLYATFDEFPPP
notes: also called R229L_(UL31)Δ50-306; UL31 chain of NEC185Δ50-SUP_(UL31)

Columns and labels:
UL31 1-306 (wild type) [1] = target: T1, UL31 1-306 (wild type) (HSV-1, UniProt P10215 1-306); experiment: cryo-EM structure; cryoET with sub-tomographic averaging of membrane-bound coats; 1 mg/mL NEC with 400 and 800 nm LUVs (POPC:POPS:POPA = 3:1:1), 30 min on ice; settings: both partners purified
T1 construct: also called WT UL31; UL31 chain of NEC220
T1 sequence: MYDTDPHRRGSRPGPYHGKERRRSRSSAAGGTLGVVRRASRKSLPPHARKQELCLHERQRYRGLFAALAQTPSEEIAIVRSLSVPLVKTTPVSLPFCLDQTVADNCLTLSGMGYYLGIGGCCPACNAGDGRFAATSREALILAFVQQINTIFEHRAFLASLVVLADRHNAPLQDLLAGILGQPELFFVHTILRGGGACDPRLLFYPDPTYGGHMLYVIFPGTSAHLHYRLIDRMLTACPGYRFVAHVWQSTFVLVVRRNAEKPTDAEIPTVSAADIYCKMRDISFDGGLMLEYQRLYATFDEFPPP

[2] = target: the molecule itself; experiment: as above
UL31 1-306 (wild type) [3] = target: T1, UL31 1-306 (wild type); experiment: SEC; co-expressed and co-purified UL31/UL34, tags cleaved, equimolar amounts loaded on Superdex 75 10/300 in 20 mM Na HEPES pH 7.0, 100 mM NaCl, 1 mM TCEP, 4°C; fractions analysed by SDS-PAGE; settings: both partners purified
UL31 1-306 R229L_(UL31) = target: T2, UL31 1-306 R229L_(UL31) (HSV-1, UniProt P10215 1-306, R229L); experiment: as above; settings: both partners purified
T2 construct: also called SUP_(UL31); UL31 chain of NEC220-SUP_(UL31)
T2 sequence: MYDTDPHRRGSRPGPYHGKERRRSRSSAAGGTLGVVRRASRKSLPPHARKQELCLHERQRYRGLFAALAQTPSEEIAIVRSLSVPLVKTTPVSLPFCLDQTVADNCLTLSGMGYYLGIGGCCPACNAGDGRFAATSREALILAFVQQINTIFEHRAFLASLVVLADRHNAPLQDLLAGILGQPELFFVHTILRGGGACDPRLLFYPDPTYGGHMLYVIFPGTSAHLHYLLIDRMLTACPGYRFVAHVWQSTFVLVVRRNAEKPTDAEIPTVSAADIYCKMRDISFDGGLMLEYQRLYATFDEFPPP

[4] = target: B12; experiment: crystal structure; settings: both partners purified
crystal structure = target: the molecule itself; experiment: crystal structure

B1: UL34 1-220 (wild type) (domain or fragment)
chain: MAGLGKPYTGHPGDAFEGLVQRIRLIVPSTLRGGDGEAGPYSPSSLPSRCAFQFHGHDGSDESFPIEYVLRLMNDWAEVPCNPYLRIQNTGVSVLFQGFFHRPHNAPGGAITPERTNVILGSTETTGLSLGDLDTIKGRLGLDARPMMASMWISCFVRMPRVQLAFRFMGPEDAGRTRRILCRAAEQAITRRRRTRRSREAYGAEAGLGVAGTGFRARGD
notes: also called UL34 chain of NEC220; not shown: GST, N-terminal, cleaved
B1: binds (UL31 1-306 (wild type) [1]).

B2: NEC220-DN_(UL34)/SUP_(UL31) (complex)
chain 1: MYDTDPHRRGSRPGPYHGKERRRSRSSAAGGTLGVVRRASRKSLPPHARKQELCLHERQRYRGLFAALAQTPSEEIAIVRSLSVPLVKTTPVSLPFCLDQTVADNCLTLSGMGYYLGIGGCCPACNAGDGRFAATSREALILAFVQQINTIFEHRAFLASLVVLADRHNAPLQDLLAGILGQPELFFVHTILRGGGACDPRLLFYPDPTYGGHMLYVIFPGTSAHLHYLLIDRMLTACPGYRFVAHVWQSTFVLVVRRNAEKPTDAEIPTVSAADIYCKMRDISFDGGLMLEYQRLYATFDEFPPP
chain 2: MAGLGKPYTGHPGDAFEGLVQRIRLIVPSTLRGGAGAAGPYSPSSLPSRCAFQFHGHDGSDESFPIEYVLRLMNDWAEVPCNPYLRIQNTGVSVLFQGFFHRPHNAPGGAITPERTNVILGSTETTGLSLGDLDTIKGRLGLDARPMMASMWISCFVRMPRVQLAFRFMGPEDAGRTRRILCRAAEQAITRRRRTRRSREAYGAEAGLGVAGTGFRARGD
notes: also called NEC-DN_(UL34)/SUP_(UL31)
B2: binds [2].

B3: NEC220 (wild-type HSV-1 nuclear egress complex, UL31 1-306 with UL34 1-220) (complex)
chain 1: MYDTDPHRRGSRPGPYHGKERRRSRSSAAGGTLGVVRRASRKSLPPHARKQELCLHERQRYRGLFAALAQTPSEEIAIVRSLSVPLVKTTPVSLPFCLDQTVADNCLTLSGMGYYLGIGGCCPACNAGDGRFAATSREALILAFVQQINTIFEHRAFLASLVVLADRHNAPLQDLLAGILGQPELFFVHTILRGGGACDPRLLFYPDPTYGGHMLYVIFPGTSAHLHYRLIDRMLTACPGYRFVAHVWQSTFVLVVRRNAEKPTDAEIPTVSAADIYCKMRDISFDGGLMLEYQRLYATFDEFPPP
chain 2: MAGLGKPYTGHPGDAFEGLVQRIRLIVPSTLRGGDGEAGPYSPSSLPSRCAFQFHGHDGSDESFPIEYVLRLMNDWAEVPCNPYLRIQNTGVSVLFQGFFHRPHNAPGGAITPERTNVILGSTETTGLSLGDLDTIKGRLGLDARPMMASMWISCFVRMPRVQLAFRFMGPEDAGRTRRILCRAAEQAITRRRRTRRSREAYGAEAGLGVAGTGFRARGD
B3: binds [2].

B4: NEC220-SUP_(UL31) (complex)
chain 1: MYDTDPHRRGSRPGPYHGKERRRSRSSAAGGTLGVVRRASRKSLPPHARKQELCLHERQRYRGLFAALAQTPSEEIAIVRSLSVPLVKTTPVSLPFCLDQTVADNCLTLSGMGYYLGIGGCCPACNAGDGRFAATSREALILAFVQQINTIFEHRAFLASLVVLADRHNAPLQDLLAGILGQPELFFVHTILRGGGACDPRLLFYPDPTYGGHMLYVIFPGTSAHLHYLLIDRMLTACPGYRFVAHVWQSTFVLVVRRNAEKPTDAEIPTVSAADIYCKMRDISFDGGLMLEYQRLYATFDEFPPP
chain 2: MAGLGKPYTGHPGDAFEGLVQRIRLIVPSTLRGGDGEAGPYSPSSLPSRCAFQFHGHDGSDESFPIEYVLRLMNDWAEVPCNPYLRIQNTGVSVLFQGFFHRPHNAPGGAITPERTNVILGSTETTGLSLGDLDTIKGRLGLDARPMMASMWISCFVRMPRVQLAFRFMGPEDAGRTRRILCRAAEQAITRRRRTRRSREAYGAEAGLGVAGTGFRARGD
notes: also called NEC-SUP_(UL31)
B4: binds [2].

B5: UL34 1-220 K137A_(UL34) (domain or fragment)
chain: MAGLGKPYTGHPGDAFEGLVQRIRLIVPSTLRGGDGEAGPYSPSSLPSRCAFQFHGHDGSDESFPIEYVLRLMNDWAEVPCNPYLRIQNTGVSVLFQGFFHRPHNAPGGAITPERTNVILGSTETTGLSLGDLDTIAGRLGLDARPMMASMWISCFVRMPRVQLAFRFMGPEDAGRTRRILCRAAEQAITRRRRTRRSREAYGAEAGLGVAGTGFRARGD
notes: also called UL34 chain of NEC220-K137A_(UL34); not shown: GST, N-terminal, cleaved
B5: binds (UL31 1-306 (wild type) [3]); binds (UL31 1-306 R229L_(UL31)).

B6: UL34 1-220 R139A_(UL34) (domain or fragment)
chain: MAGLGKPYTGHPGDAFEGLVQRIRLIVPSTLRGGDGEAGPYSPSSLPSRCAFQFHGHDGSDESFPIEYVLRLMNDWAEVPCNPYLRIQNTGVSVLFQGFFHRPHNAPGGAITPERTNVILGSTETTGLSLGDLDTIKGALGLDARPMMASMWISCFVRMPRVQLAFRFMGPEDAGRTRRILCRAAEQAITRRRRTRRSREAYGAEAGLGVAGTGFRARGD
notes: also called UL34 chain of NEC220-R139A_(UL34); not shown: GST, N-terminal, cleaved
B6: binds (UL31 1-306 (wild type) [3]).

B7: UL34 1-220 K137A_(UL34)/R139A_(UL34) (domain or fragment)
chain: MAGLGKPYTGHPGDAFEGLVQRIRLIVPSTLRGGDGEAGPYSPSSLPSRCAFQFHGHDGSDESFPIEYVLRLMNDWAEVPCNPYLRIQNTGVSVLFQGFFHRPHNAPGGAITPERTNVILGSTETTGLSLGDLDTIAGALGLDARPMMASMWISCFVRMPRVQLAFRFMGPEDAGRTRRILCRAAEQAITRRRRTRRSREAYGAEAGLGVAGTGFRARGD
notes: also called UL34 chain of NEC220-K137A_(UL34)/R139A_(UL34); not shown: GST, N-terminal, cleaved
B7: binds (UL31 1-306 (wild type) [3]); binds (UL31 1-306 R229L_(UL31)).

B8: UL34 15-185 D35A_(UL34)/E37A_(UL34) (domain or fragment)
chain: AFEGLVQRIRLIVPSTLRGGAGAAGPYSPSSLPSRCAFQFHGHDGSDESFPIEYVLRLMNDWAEVPCNPYLRIQNTGVSVLFQGFFHRPHNAPGGAITPERTNVILGSTETTGLSLGDLDTIKGRLGLDARPMMASMWISCFVRMPRVQLAFRFMGPEDAGRTRRILCRAA
notes: also called DN_(UL34); UL34 chain of NEC185Δ50-DN_(UL34)/SUP_(UL31); not shown: GST, N-terminal, cleaved
B8: binds [4].

B9: NEC185Δ50-SUP_(UL31) (complex)
chain 1: QELCLHERQRYRGLFAALAQTPSEEIAIVRSLSVPLVKTTPVSLPFCLDQTVADNCLTLSGMGYYLGIGGCCPACNAGDGRFAATSREALILAFVQQINTIFEHRAFLASLVVLADRHNAPLQDLLAGILGQPELFFVHTILRGGGACDPRLLFYPDPTYGGHMLYVIFPGTSAHLHYLLIDRMLTACPGYRFVAHVWQSTFVLVVRRNAEKPTDAEIPTVSAADIYCKMRDISFDGGLMLEYQRLYATFDEFPPP
chain 2: AFEGLVQRIRLIVPSTLRGGDGEAGPYSPSSLPSRCAFQFHGHDGSDESFPIEYVLRLMNDWAEVPCNPYLRIQNTGVSVLFQGFFHRPHNAPGGAITPERTNVILGSTETTGLSLGDLDTIKGRLGLDARPMMASMWISCFVRMPRVQLAFRFMGPEDAGRTRRILCRAA
notes: also called NEC-SUP_(UL31) crystallization construct; source: E. coli BL21(DE3) LoBSTr, co-expressed, purified (Ni Sepharose, Glutathione Sepharose, tags cleaved, Talon, Superdex 75)
For B9, the “stoichiometry N” value (crystal structure) was 6.

B10: UL34 15-185 (domain or fragment)
chain: AFEGLVQRIRLIVPSTLRGGDGEAGPYSPSSLPSRCAFQFHGHDGSDESFPIEYVLRLMNDWAEVPCNPYLRIQNTGVSVLFQGFFHRPHNAPGGAITPERTNVILGSTETTGLSLGDLDTIKGRLGLDARPMMASMWISCFVRMPRVQLAFRFMGPEDAGRTRRILCRAA
notes: also called UL34 chain of NEC185Δ50-SUP_(UL31); not shown: GST, N-terminal, cleaved
B10: binds (crystal structure); binds [4].

B11: NEC185Δ50-DN_(UL34)/SUP_(UL31) (complex)
chain 1: QELCLHERQRYRGLFAALAQTPSEEIAIVRSLSVPLVKTTPVSLPFCLDQTVADNCLTLSGMGYYLGIGGCCPACNAGDGRFAATSREALILAFVQQINTIFEHRAFLASLVVLADRHNAPLQDLLAGILGQPELFFVHTILRGGGACDPRLLFYPDPTYGGHMLYVIFPGTSAHLHYLLIDRMLTACPGYRFVAHVWQSTFVLVVRRNAEKPTDAEIPTVSAADIYCKMRDISFDGGLMLEYQRLYATFDEFPPP
chain 2: AFEGLVQRIRLIVPSTLRGGAGAAGPYSPSSLPSRCAFQFHGHDGSDESFPIEYVLRLMNDWAEVPCNPYLRIQNTGVSVLFQGFFHRPHNAPGGAITPERTNVILGSTETTGLSLGDLDTIKGRLGLDARPMMASMWISCFVRMPRVQLAFRFMGPEDAGRTRRILCRAA
notes: also called NEC-DN_(UL34)/SUP_(UL31) crystallization construct; NEC185Δ50-DN34/SUP31; source: E. coli BL21(DE3) LoBSTr, co-expressed, purified (Ni Sepharose, Glutathione Sepharose, tags cleaved, Talon, Superdex 75)
B11: binds (crystal structure).

B12: binds (crystal structure).
